Measured values published in patent publication US20070036810A1, “Cyclic amp response element activator proteins and uses related thereto” (priority 2003, published 2007).

What was measured:
Type in all cases: cell-based
GAL4-CREB fusion protein = experiment: GAL4-CREB activation assay in HLR cell line; conditions: HLR cell line with integrated pFR-Luc reporter, normalized to pCMV-BD vector
Protocol: To determine if CREAP proteins can directly activate CREB1 protein, the expression constructs of CREAP1, CREAP2 and CREAP3 were transfected individually or with GAL4-CREB plasmid (Stratagene) into HLR cell line (Stratagene) carrying genomic DNA integrated copies of pFR-Luc reporter. Briefly, HLR cells were maintained per manufacturer's instructions. Selected plasmids and either empty vector (pCMV-BD) or GAL4-CREB plasmid were transfected at 75 ng/well using Fugene6 transfection reagent (Roche) as described above. As a positive control pFC-PKA an expression construct encoding catalytic subunit of protein kinase A (Stratagene) was also co-trasfected with GAL4-CREB. Fold of activation was compared to the reporter's activity measured in the cells transfected with empty vector.
The ability of full length CREAP1, CREAP2 and CREAP3 to induce the activity of GAL4-CREB fusion protein (Stratagene) was tested. The data presented are normalized to the value seen with pCMV-BD vector. […] Note the fold induction obtained with positive control is lower when compared to the data from Table 6 when all the plasmids including the reporter were transiently transfected.

[1] = tested on: GAL4 DNA binding sites (UAS-Luc, pFR-Luc reporter); experiment: GAL4 DNA binding domain fusion transactivation assay (pFR-Luc) in HEK 293 cells; conditions: normalized to pCMV-BD vector
Text: To determine if CREAP proteins can act as a transcription activators, various regions of all 3 CREAP homologs (amino acids 300-650 of CREAP1, amino acids 296-694 of CREAP2 and amino acids 335-635 of CREAP3) were expressed as fusion proteins with the DNA binding domain of GAL4 and tested for the ability to activate expression of a reporter gene linked to GAL4 protein binding sequences (UAS-Luc (pFR-Luc reporter). Briefly, the indicated regions of CREAP1, CREAP2 and CREAP3 were amplified by PCR and subcloned in frame into pCMV-BD vector (Stratagene) encoding GAL4 DNA binding domain. Selected plasmids and empty vector (pCMV-SPORT6) were transfected into HEK 293 cells at 75 ng/well using Fugene6 transfection reagent (Roche) as described above. pFR-Luc reporter (Stratagene) encoding firefly luciferase gene driven by minimal promoter linked to 5 concatamerized GAL4 binding sites (UAS) was co-transfected at 100 ng/well. As a positive control, the reporter was also co-transfected with a plasmid encoding GAL4-CREB fusion protein (Stratagene) alone or in the presence of pFC-PKA an expression construct encoding catalytic subunit of protein kinase A (Stratagene) to activate the CREB kinase inducible activation domain. Fold induction was compared to the reporter's activity measured in the cells transfected with pCMV-BD an expression vector carrying GAL4 DNA binding domain only. […]

[2] = tested on: secreted IL-8 protein from HeLa cells; experiment: IL-8 Elisa assay in HeLa cells; conditions: after transfection
Protocol: HeLa cells are transfected with DNA samples selected from the group of sequence verified and confirmed hits at 100 ng per well in 96 well plates (Costar) using the protocol described above. DNA samples designated as co-activators are co-transfected at 25 ng per well. Empty vector pCMV-Sport6 is used as a negative control. 72 hours post-transfection IL-8 content is measured in the cell growth media in prediluted aliquots corresponding to 1 to 5 μl of conditioned growth media using an IL-8 Elisa kit (Sigma) following the provided protocol. As a positive control, growth media is collected from the cells transfected with empty vector and treated with IL-1β and TNFα (R&D Systems) at 5 ng/ml and 50 ng/ml respectively for 16 hours prior to collection of the growth media for the IL-8 assay.

human IL-8 promoter = experiment: pGL2-IL-8p-Luc reporter inducibility in HEK 293 cells; conditions: HEK 293 cells treated with 50 ng/ml for 16 hours
Protocol: A luciferase reporter controlled by a 1.5 kB IL-8 promoter containing fragment of human IL-8 promoter was tested for inducibility by known regulators of cytokine-mediated gene expression. pNF-κB-Luc (BD Biosciences) and pGL2-IL-8p-Luc reporters were co-transfected into HEK 293 cells with expression constructs encoding known activators of the NF-κB pathway, truncated MEKK (AA 360-672) (Stratagene) and a full length TRAF6 cDNA made according to conventional methods using a proprietary clone collection. Cells co-transfected with empty pCMV-Sport6 vector were either left untreated or treated with TNFα (50 ng/ml, for 16 hours). Luciferase activity was measured 48 hours post transfection. The pNF-κB-Luc reporter was used as a positive control.

**Q.** Which “Fold Induction” value (GAL4-CREB fusion protein) does the source give for “GAL4-CREB: plasmid encoding GAL4-CREB fusion protein (Stratagene) [reference compound]” here?
**A.** 75.55

**Q.** What about the “Fold Induction” value [1] of the same substance?
**A.** 7.66

**Q.** With “relA: subunit of NF-κB transcription factor, expression construct [reference compound]” as the substance, how does the “accumulation of secreted IL-8 protein” value [2] read?
**A.** induced small increases

**Q.** For TNFα [reference compound], which “increase of IL-8 promoter-reporter activity” value (human IL-8 promoter) is on record?
**A.** 4.7 times
